According to patent US20190345459A1 (YEDA RESEARCH AND DEVELOPMENT, published 2019):

T1: tetravalent scaffoldin ScafCA(CBM)TF (SEQ ID No. 5)
T1 chain: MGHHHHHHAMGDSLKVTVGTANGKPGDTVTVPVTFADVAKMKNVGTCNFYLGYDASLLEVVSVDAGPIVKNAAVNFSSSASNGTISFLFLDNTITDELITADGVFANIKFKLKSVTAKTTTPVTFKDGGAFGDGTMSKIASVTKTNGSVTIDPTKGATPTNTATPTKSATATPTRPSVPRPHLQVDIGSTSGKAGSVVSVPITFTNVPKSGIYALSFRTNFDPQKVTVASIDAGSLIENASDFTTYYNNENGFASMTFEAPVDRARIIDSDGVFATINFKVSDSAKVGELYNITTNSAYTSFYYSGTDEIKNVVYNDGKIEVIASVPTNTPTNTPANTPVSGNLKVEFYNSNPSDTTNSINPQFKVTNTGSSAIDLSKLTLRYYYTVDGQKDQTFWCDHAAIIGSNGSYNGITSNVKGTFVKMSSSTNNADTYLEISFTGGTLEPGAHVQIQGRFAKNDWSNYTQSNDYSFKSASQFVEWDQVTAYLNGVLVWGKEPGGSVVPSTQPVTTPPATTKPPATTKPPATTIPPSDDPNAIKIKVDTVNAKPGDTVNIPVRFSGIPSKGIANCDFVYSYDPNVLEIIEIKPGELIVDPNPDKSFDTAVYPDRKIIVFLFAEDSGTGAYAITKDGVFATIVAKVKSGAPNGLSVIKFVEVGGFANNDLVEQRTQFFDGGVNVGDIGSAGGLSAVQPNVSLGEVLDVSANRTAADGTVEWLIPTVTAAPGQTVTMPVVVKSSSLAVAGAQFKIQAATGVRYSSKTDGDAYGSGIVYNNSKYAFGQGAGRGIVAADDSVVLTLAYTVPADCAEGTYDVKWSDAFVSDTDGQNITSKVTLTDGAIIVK

T2: C. thermocellum cohesin 3 from CipA (Clostridium thermocellum, UniProt Q06851 560-704)
T2 construct: domain: cohesin 3; also called cohesin T
T2 sequence: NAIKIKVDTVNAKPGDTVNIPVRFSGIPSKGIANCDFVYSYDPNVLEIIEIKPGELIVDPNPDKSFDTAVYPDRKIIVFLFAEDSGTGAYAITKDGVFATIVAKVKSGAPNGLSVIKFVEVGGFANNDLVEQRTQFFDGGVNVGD

B1: Xyn11V-a (SEQ ID No. 3) (enzyme)
chain: MHHHHHHDVVITSNQTGTHGGYNFEYWKDTGNGTMVLKDGGAFSCEWSNINNILFRKGFKYDETKTHDQLGYITVTYSCNYQPNGNSYLGVYGWTSNPLVEYYIIESWGTWRPPGATPKGTITVDGGTYEIYETTRVNQPSIKGTATFQQYWSVRTSKRTSGTISVTEHFKAWERLGMKMGKMYEVALVVEGYQSSGKADVTSMTITVGNAPSTSSPPGPTPEPTPRSAFSKIEAEEYNSLKSSTIQTIGTSDGGSGIGYIESGDYLVFNKINFGNGANSFKARVASGADTPTNIQLRLGSPTGTLIGTLTVASTGGWNNYEEKSCSITNTTGQHDLYLVFSGPVNIDYFIFDSKGVNPTPTPTSTTTPTPKFIYGDVDGNGSVRINDAVLIRDYVLGKINEFPYEYGMLAADVDGNGSIKINDAVLVRDYVLGKIFLFPVEEKEELEHHHHHH
B2: Xyn-c-Lac (SEQ ID No. 1), chimeric bifunctional xylanase-dockerin-laccase (enzyme)
chain: MGSSHHHHHHKNADSYAKKPHISALNAPQLDQRYKNEFTIGAAVEPYQLQNEKDVQMLKRHFNSIVAENVMKPISIQPEEGKFNFEQADRIVKFAKANGMDIRFHTLVWHSQVPQWFFLDKEGKPMVNETDPVKREQNKQLLLKRLETHIKTIVERYKDDIKYWDVVNEVVGDDGKLRNSPWYQIAGIDYIKVAFQAARKYGGDNIKLYMNDYNTEVEPKRTALYNLVKQLKEEGVPIDGIGHQSHIQIGWPSEAEIEKTINMFAALGLDNQITELDVSMYGWPPRAYPTYDAIPKQKFLDQAARYDRLFKLYEKLSDKISNVTFWGIADNHTWLDSRADVYYDANGNVVVDPNAPYAKVEKGKGKDAPFVFGPDYKVKPAYWAIIDHKSAGENLYFQGTSPVIVYGDYNNDGNVDALDFAGLKKYIMAADHAYVKNLDVNLDNEVNAFDLAILKKYLLGMVSKLPSQDPNSVTGTVVELAPGIHAGFTGRAGGVSGEPYATLNLGDHVGDDPAAVAENRRRAALGFGISPDRVVWMNQVHGATAVTVTGSGQAGDVDAVVTPEAGLALAVLVADCLPLLVADAAAGVIGAAHAGRPGMAAGVVPALVAEMARHGARPERCVALLGPAICGRCYEVPRDLQDRVARTVPEARCTTAEGTPGLDIRAGVTAQLTNLGVTNITHDSRCTRESADLFSYRRDATTGRFAGYVWRVP
notes: Recombinant, expressed in E. coli, His-tagged; also called xylanase-tagged laccase; bifunctional xylanase-laccase
B3: f-5A (SEQ ID No. 2) (enzyme)
chain: MAHHHHHHAPSPGTKLVPTWGDTNCDGVVNVADVVVLNRFLNDPTYSNITDQGKVNADVVDPQDKSGAAVDPAGVKLTVADSEAILKAIVELITLPQAVPGTQPGTGTPVERYGKVQVCGTQLCDEHGNPVQLRGMSTHGIQWFDHCLTDSSLDALAYDWKADIIRLSMYIQEDGYETNPRGFTDRMHQLIDMATARGLYVIVDWHILTPGDPHYNLDRAKTFFAEIAQRHASKTNVLYEIANEPNGVSWASIKSYAEEVIPVIRQRDPDSVIIVGTRGWSSLGVSEGSGPAEIAANPVNASNIMYAFHFYAASHRDNYLNALREASELFPVFVTEFGTETYTGDGANDFQMADRYIDLMAERKIGWTKWNYSDDFRSGAVFQPGTCASGGPWSGSSLKASGQWVRSKLQS
B4: t-48A (SEQ ID No. 4) (enzyme)
chain: MAHHHHHHAVESSSTGLGDLNGDGNINSSDLQALKRHLLGISPLTGEALLRADVNRSGKVDSTDYSVLKRYILRIITEVPGHDSAEVTVREIDPNTSSYDQAFLEQYEKIKDPASGYFREFNGLLVPYHSVETMIVEAPDHGHQTTSEAFSYYLWLEAYYGRVTGDWKPLHDAWESMETFIIPGTKDQPTNSAYNPNSPATYIPEQPNADGYPSPLMNNVPVGQDPLAQELSSTYGTNEIYGMHWLLDVDNVYGFGFCGDGTDDAPAYINTYQRGARESVWETIPHPSCDDFTHGGPNGYLDLFTDDQNYAKQWRYTNAPDADARAVQVMFWAHEWAKEQGKENEIAGLMDKASKMGDYLRYAMFDKYFKKIGNCVGATSCPGGQGKDSAHYLLSWYYSWGGSLDTSSAWAWRIGSSSSHQGYQNVLAAYALSQVPELQPDSPTGVQDWATSFDRQLEFLQWLQSAEGGIAGGATNSWKGSYDTPPTGLSQFYGMYYDWQPVWNDPPSNNWFGFQVWNMERVAQLYYVTGDARAEAILDKWVPWAIQHTDVDADNGGQNFQVPSDLEWSGQPDTWTGTYTGNPNLHVQVVSYSQDVGVTAALAKTLMYYAKRSGDTTALATAEGLLDALLAHRDSIGIATPEQPSWDRLDDPWDGSEGLYVPPGWSGTMPNGDRIEPGATFLSIRSFYKNDPLWPQVEAHLNDPQNVPAPIVERHRFWAQVEIATAFAAHDELFGAGAP

Experiments:
[1] = target: T1, tetravalent scaffoldin ScafCA(CBM)TF …; assay: electrophoretic mobility on non-denaturing PAGE, equimolar enzymes and scaffoldin
[2] = target: T2, C. thermocellum cohesin 3 from CipA; assay: affinity-based ELISA, cohesin-dockerin binding

Binder	binding result [1]	binding result [2]
B1	binds	
B2		no binding
B3	binds	
B4	binds	
